Assay [1] has as its target T1, human EphA4 extracellular domain-SEAP-His protein (human). Kind of assay: ELISA. The method, then:
(§1) For the anti-human EphA4 monoclonal antibodies produced in Example 1, evaluation of binding activity to various EphA4 was performed according to the following steps. Mouse anti-6-His antibodies (R&D) were coated on the wells of a 96-well plate (Thermo […]). After incubating at room temperature for 1 hour, the wells were blocked at 4° C. overnight with 1% Block Ace (KAC). After washing three times with 0.02% Tween 20/PBS, the wells were seeded with mouse EphA4 extracellular domain-SEAP-His protein, rat EphA4 extracellular domain-SEAP-His protein, rabbit EphA4 extracellular domain-SEAP-His protein, monkey EphA4 extracellular domain-SEAP-His protein, human EphA4 extracellular domain-SEAP-His protein, or SEAP-His protein (final concentration 1 nM), and this was incubated at room temperature for 1 hour. After washing three times, anti-human EphA4 rabbit monoclonal antibody (10 pg/mL) was added, and this was incubated at room temperature for about 1 hour. After washing three times, horseradish peroxidase labeled goat anti-rabbit IgG polyclonal antibody (abcam) was added, and this was incubated at room temperature for 1 hour. After washing three times, TMBZ (3,3′,5,5′-tetramethylbenzidine, KPL) solution was added to the wells, and this was incubated for 3 minutes at room temperature. Equal amounts of quenching solution (2 N H₂SO₄, FUJIFILM Wako) were added to the wells, and absorbance at 450 nm and 650 nm were read with a microplate reader (Thermo […]).

Assay [2] addresses T2, SEAP.
T2 construct: negative control antigen; also called SEAP-His protein
Kind of assay: ELISA. How it is done:
as §1

Assay [3] deals with T3, monkey EphA4 extracellular domain-SEAP-His protein (monkey).
T3 construct: the fusion as a whole has none; not shown: SEAP-His part
T3 sequence (chain, as listed by the source): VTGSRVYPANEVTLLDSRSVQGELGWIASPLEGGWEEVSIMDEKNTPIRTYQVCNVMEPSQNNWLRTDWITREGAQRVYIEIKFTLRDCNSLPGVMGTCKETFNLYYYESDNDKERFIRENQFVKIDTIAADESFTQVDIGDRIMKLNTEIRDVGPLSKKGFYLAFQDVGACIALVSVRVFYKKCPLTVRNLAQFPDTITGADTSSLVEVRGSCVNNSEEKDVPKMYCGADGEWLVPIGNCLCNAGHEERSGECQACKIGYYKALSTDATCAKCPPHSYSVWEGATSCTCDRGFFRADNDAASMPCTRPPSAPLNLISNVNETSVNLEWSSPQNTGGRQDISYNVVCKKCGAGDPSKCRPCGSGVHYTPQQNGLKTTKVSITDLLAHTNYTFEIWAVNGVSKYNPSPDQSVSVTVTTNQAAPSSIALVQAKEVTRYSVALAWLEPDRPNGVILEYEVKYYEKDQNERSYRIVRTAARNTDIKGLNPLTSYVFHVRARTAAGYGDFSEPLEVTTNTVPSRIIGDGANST
Kind of assay: ELISA. How it is done: as §1

The target in assay [4] is T4, Rabbit.
T4 construct: also called rabbit EphA4 extracellular domain-SEAP-His protein
Kind of assay: ELISA. How it is done: as §1

Assay [5] addresses T5, Rat.
T5 construct: also called rat EphA4 extracellular domain-SEAP-His protein
Kind of assay: ELISA. How it is done:
as §1

Assay [6] deals with FN1. Kind of assay: ELISA. How it is done: (§2) For the anti-human EphA4 monoclonal antibodies produced in Example 1, evaluation of binding activity to various EphA4 was performed according to the following steps. Mouse anti-6-His antibodies (R&D) were coated on the wells of a 96-well plate (Thermo […]). After incubating at room temperature for 1 hour, the wells were blocked at room temperature for 1 hour with 1% Block Ace (KAC). After washing three times with 0.02% Tween 20/PBS, the wells were seeded with human EphA4 extracellular domain-MBP-His protein, human EphA4 ligand binding domain-MBP-His protein, human EphA4 fibronectin III-type domain 1-MBP-His protein, human EphA4 fibronectin III-type domain 2-MBP-His protein, or MBP-His protein (final concentration 1 nM), and this was incubated at room temperature for 1 hour. After washing three times, anti-human EphA4 rabbit monoclonal antibody (10 pg/mL) was added, and this was incubated at room temperature for 1 hour. After washing three times, horseradish peroxidase labeled goat anti-rabbit IgG polyclonal antibody (abcam) was added, and this was incubated at room temperature for 1 hour. After washing three times, TMBZ (3,3′,5,5′-tetramethylbenzidine, KPL) solution was added to the wells, and this was incubated for four and a half minutes at room temperature. Equal amounts of quenching solution (2 N H₂SO₄, FUJIFILM Wako) were added to the wells, and absorbance at 450 nm and 650 nm were read with a microplate reader (Thermo […]).

The target of assay [7] is T6, human EphA4 extracellular domain-MBP-His protein (human).
T6 construct: also called human EphA4 extracellular domain (ECD); Human EphA4 extracellular domain-MBP-His 10
Kind of assay: ELISA. The method, then:
as §2

Assay [8] has as its target human EphA4 ligand binding domain-MBP-His protein (human, UniProt P54764 20-209; P0AEX9 29-392 = MBP). As to the kind of experiment: ELISA. The method, then:
as §2

The target in assay [9] is T6, human EphA4 extracellular …. As to the kind of experiment: SPR Biacore T200, EphA4 ECD-MBP-His captured by anti-His antibody, antibody as analyte, 1:1 model, mean of three. The method, then:
(§3) The binding affinity of KPEP11_04, KPEP11_08, KPEP11_10, and KPEP11_18 against human EphA4 was determined by the surface plasmon resonance method (SPR method) employing Biacore T200 (Cytiva). First, an anti-His antibody (Cytiva, 28-9950-56) was diluted to 10 μg/mL with the immobilizing buffer (10 mM sodium acetate, pH 4.5), and immobilized onto a sensor chip CM5 according to the protocol attached to Biacore T200. Immobilization was performed by the amine coupling method employing N-hydroxysuccinimide (NHS) and N-ethyl-N′-(3-dimethylaminopropyl) carbodiimide hydrochloride salt (EDC), and ethanolamine was employed for blocking (sensor chips or immobilizing reagents were all from Cytiva). Human EphA4 extracellular domain-MBP-His 10 was diluted with a running buffer HBS-EP+ (Cytiva), and pumped onto a flow cell for 120 seconds to allow capturing (captured amount of about 3 RU). […] At the end of each observation, 10 mM glycine hydrochloric acid pH 1.5 (60 seconds) and 3 M MgCl₂ (30 seconds) were added to regenerate the sensor chips. Fitting analysis by the 1:1 binding model employing the BIA evaluation software attached to the system was performed against the binding reaction curves obtained to calculate the binding affinity against human EphA4 (KD=kd/ka). The experiment described above was carried out three times, and the mean was calculated for each parameter.

Assay [10] has the same target. As to the kind of experiment: SPR Biacore T200, EphA4 ECD-MBP-His captured by anti-His antibody, antibody as analyte, 1:1 model. How it is done: as §3
Assay [11] concerns the target T1, human EphA4 extracellular …. Kind of assay: ELISA. The source holds these as a separate data set.
Assay [12] deals with T3, monkey EphA4 extracellular …. Kind of assay: ELISA. The source holds these as a separate data set.
Assay [13] deals with FN2. Kind of assay: ELISA. The method, then: as §2
Assay [14] addresses MBP. As to the kind of experiment: ELISA. The method, then: as §2

“And” between values parts separate entries of the source, which are not always exact repeats. Equal entries are not always repeated.

T1 sequence (chain, as listed by the source limits assumed): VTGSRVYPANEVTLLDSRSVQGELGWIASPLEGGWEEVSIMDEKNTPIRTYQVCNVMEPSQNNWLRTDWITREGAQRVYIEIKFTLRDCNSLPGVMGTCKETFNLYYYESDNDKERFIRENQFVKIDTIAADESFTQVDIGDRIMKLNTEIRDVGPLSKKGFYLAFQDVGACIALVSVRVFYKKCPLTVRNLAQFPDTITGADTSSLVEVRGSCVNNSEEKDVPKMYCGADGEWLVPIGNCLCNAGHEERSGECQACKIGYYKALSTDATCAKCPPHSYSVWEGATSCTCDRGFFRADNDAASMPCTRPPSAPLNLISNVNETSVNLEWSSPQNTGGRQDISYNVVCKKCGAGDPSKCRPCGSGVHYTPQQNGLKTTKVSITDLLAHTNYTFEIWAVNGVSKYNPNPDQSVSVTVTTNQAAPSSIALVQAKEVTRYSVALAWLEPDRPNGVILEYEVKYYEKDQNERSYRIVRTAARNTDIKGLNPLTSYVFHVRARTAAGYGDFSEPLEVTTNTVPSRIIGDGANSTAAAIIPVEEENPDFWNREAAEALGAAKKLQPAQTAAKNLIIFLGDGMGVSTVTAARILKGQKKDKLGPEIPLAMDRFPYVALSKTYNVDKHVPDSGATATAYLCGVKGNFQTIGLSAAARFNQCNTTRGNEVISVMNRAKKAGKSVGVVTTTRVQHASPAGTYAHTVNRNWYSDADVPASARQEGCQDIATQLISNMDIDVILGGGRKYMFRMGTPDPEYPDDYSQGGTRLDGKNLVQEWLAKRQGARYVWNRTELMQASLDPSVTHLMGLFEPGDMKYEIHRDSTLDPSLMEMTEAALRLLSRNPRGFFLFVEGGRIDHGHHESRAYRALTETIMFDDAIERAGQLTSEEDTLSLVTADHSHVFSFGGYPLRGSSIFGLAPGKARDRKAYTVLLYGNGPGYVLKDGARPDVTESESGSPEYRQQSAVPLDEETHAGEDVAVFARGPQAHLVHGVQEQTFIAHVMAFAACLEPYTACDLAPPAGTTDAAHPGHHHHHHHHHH

B1: KPEP11_18 (antibody, V domains shown)
VH: QSLEESGGRLVTPGTPLTLTCTISGFSLSSFYINWVRQAPGRGLEWIGIIYPDIDATDYASWVKGRFTISKTSTTVDLKITSPTTEDTATYFCARSDVDYYTTRLDLWGQGTLVTVSS
VL: DPMMTQTASPVSAAVGGTVSISCQSNKSVYSNWLSWFQQKPGQPPKLLIYGASTLASGVPSRFKGSGSGTQFTLTVSDVQCDDAATYFCLGGYRDNSDNAFGGGTEVVVKG
notes: Rabbit IgG/kappa; Used coated or HRP-labeled in the sandwich ELISAs; also called anti-human EphA4 rabbit monoclonal antibody KPEP11_18; HRP-labeled KPEP11_18
Consider B1, for which the absorbance in assay [1] is 1.23; in assay [2], 0.054; in assay [3], 1.18; in assay [4] it was 0.059; in assay [5], 0.067; in assay [6] it was 0.222. Moreover, the absorbance in [7] was determined as 1.42; in assay [8], 1.43. The Kd in assay [9] was 0.389 nM; in assay [10], 0.416 nM and 0.382 nM. Also, the dissociation rate constant (koff) in assay [9] is 0.00127 s⁻¹; in [10], 0.00128 s⁻¹ and 0.00137 s⁻¹ and 0.00127 s⁻¹. The on-rate (kon) in [10] is 3.06e+06 M⁻¹ s⁻¹ and 3.32e+06 M⁻¹ s⁻¹ and 3.44e+06 M⁻¹ s⁻¹. The “EC50 (read off the curve)” value in assay [11] and in assay [12] was ~0.01 nM in each case.

B2: KPEP11_10 (antibody)
heavy: QSLEESGGRLVTPGTPLTLTCTVSGFSLSSYHMSWVRQAPGKGLEWIGIIYRSGNTYYANWAKGRFTISKTSTTVDLKITSPTTEDTATYFCARESSTFYGMDLWGPGTLVTVSSGAPKAPSVFPLAPCCGDTPSSTVTLGCLVKGYLPEPVTVTWNSGTLTNGVRTFPSVRQSSGLYSLSSVVSVTSSSQPVTCNVAHPATNTKVDKTVAPSTCSKPTCPPPELLGGPSVFIFPPKPKDTLMISRTPEVTCVVVDVSQDDPEVQFTWYINNEQVRTARPPLREQQFNSTIRVVSTLPITHQDWLRGKEFKCKVHNKALPAPIEKTISKARGQPLEPKVYTMGPPREELSSRSVSLTCMINGFYPSDISVEWEKNGKAEDNYKTTPAVLDSDGSYFLYNKLSVPTSEWQRGDVFTCSVMHEALHNHYTQKSISRSPGK
light: AIKMTQTPSSVSAAVGGTVTINCQASQSVYGNNELAWYQQKPGQPPKLLIYTASSLASGVPSRFKGSGSGTEFTLTISDLECADAATYYCLGYKSDDYTFGGGTEVVVKGAPVAPTVLIFPPAADQVATGTVTIVCVANKYFPDVTVTWEVDGTTQTTGIENSKTPQNSADCTYNLSSTLTLTSTQYNSHKEYTCKVTQGTTSVVQSFNRGDC
notes: Rabbit IgG/kappa; Used coated or HRP-labeled in the sandwich ELISAs; also called anti-human EphA4 rabbit monoclonal antibody KPEP11_10; HRP-labeled KPEP11_10
For the molecule B2, the absorbance in [1] is 1.17; in assay [2], 0.087; in assay [3], 1.11; in assay [4], 0.091; in assay [5], 0.087; in [6], 0.329. The absorbance in assay [13] was found to be 0.325; in assay [7], 1.35; in assay [14], 0.334; in assay [8] it was 0.34. Besides, the Kd is 1.3 nM in assay [9]; 1.36 nM and 1.23 nM in [10]. Further, the koff in assay [9] is 0.00196 s⁻¹; in assay [10] it was 0.00196 s⁻¹ and 0.00198 s⁻¹. Besides, the kon in assay [9] was 1.52e+06 M⁻¹ s⁻¹; in assay [10], 1.44e+06 M⁻¹ s⁻¹ and 1.58e+06 M⁻¹ s⁻¹. The 50% effective concentration (EC50 (read off the curve)) in assay [11] and in [12] was ~0.02 nM in each case.

Values taken from patent US20240385190A1 (EISAI R AND D MANAGEMENT, published 2024).
